# Source: patent US20220242963A1, “B-CELL ACTIVATING CD73 ANTIBODIES” (CORVUS PHARMACEUTICALS, INC., priority 2018, published 2022)
# Values joined by “and” are separate entries in the source; they are usually repeats but may differ in a detail not shown here. Equal values may be shown once.
# B1: CPI-006: humanized CD73 antibody, wherein the light chain is SEQ ID NO:8 and the heavy chain is SEQ ID NO:7; IgG1 Fcγ receptor-deficient (antibody, V domains shown)
# VH: QVQLVQSGAEVEKPGASVKVSCKASGYTFTSYWITWVRQAPGQGLEWMGDIYPGSGNTNYNEKFKTRVTITADKSTSTAYMELSSLRSEDTAVYYCAKEGGLTTEDYALDYWGQGTLVTV
# VL: EIVLTQSPATLSLSPGERATLSCRASKNVSTSGYSYMHWYQQKPGQAPRLLIYLASNLESGIPPRFSGSGYGTDFTLTINNIESEDAAYYFCQHSRELPFTFGQGTKVEIK
# What was measured:
# inflammatory cytokines = assay: Phase 1/1B clinical trial: serum cytokine levels; format: in vivo, human; settings: patients following treatment
# Protocol: Immunomodulatory activity of CPI-006 was evaluated in patients administered CPI-006. […] Further, T cell activation was evaluated upon treatment with various dosages of the monotherapy CPI-006 or a combination therapy of CPI-006 and ciforadenant. Once a T cell clone is activated, the clone can expand and produce clonal copies of the original clone. […] The results further affirm CPI-006 is an immunomodulator of CD73 positive cells.
# [1] = system: peripheral B cells, T cells, NK cells, monocytes; assay: Phase 1/1B clinical trial: circulating lymphocyte subsets in whole blood by flow cytometry; format: in vivo, human
# Protocol: The highest line at day 10 represents 1 mg/kg, the second highest line at day 10 represents 3 mg/kg, the second lowest line at day 10 represents 6 mg/kg, and the lowest line at day 10 represents 12 mg/kg.
# Whole blood was collected pre-treatment or at 0.5 hr or 24 hr after administration of CPI-006 as a single agent (left) or in combination with CPI-444 (right). The absolute number of CD19+ B cells, CD3+ T cells, CD3+CD4+ T cells, CD3+CD8+ T cells, and CD3−CD16+CD56+ NK cells were determined by flow cytometry with quantification beads.
# Blood was collected pre-treatment or 0.5 hr after administration of CPI-006. The absolute number of CD19^+ B cells, as well as the percentage of B cells positive for CD73, were determined using flow cytometry.
# Whole blood samples from the patients treated with a single dose (i.e., 1 mg/kg, 3 mg/kg, or 6 mg/kg) of CPI-006 monotherapy were analyzed by flow cytometry to further evaluate immunomodulatory effects. Levels of B cells (CD19+CD3−) are reported as a percent of total lymphocytes (gated based on scatter properties), as shown in FIG. 4A. CD73 expression was evaluated with a non-competing anti-CD73 antibody and is reported on B cells (CD19+CD3−) and T cells (CD19−CD3+), as shown in FIG. 4B. Purified B cells from healthy human donors were incubated with CPI-006 or human IgG1 isotype control at concentrations of 0.1 μg/mL, 1 μg/mL, and 10 μg/mL for 30 minutes.
# B cells (CD19+CD3−) = assay: B cell activation in healthy donor PBMC, flow cytometry of surface markers / phospho ERK; format: cell-based, human
# Source text: With reference to FIGS. 2A-2E, each group of four bars from left to right represent data for: untreated donors, donors treated with human IgG1 isotype control, donors treated with BCR stimulation, and donors treated with CPI-006. The experiments for FIGS. 2A-2E are based on healthy donor PBMC treated overnight with flow cytometry analysis of surface markers on B cells (CD19^POS CD3^NEG). These lymphocyte markers are consistent with activation of B cells as well as other antigen presenting cell populations. […] The bar graph legend from top to bottom is representative of the data bars from left to right. […] For FIG. 2H the bar graph legend from top to bottom is representative of the data bars from left to right. For FIG. 2I the legend from top to bottom is representative of the data from top to bottom. […] For each group of four bars, the legend from top to bottom are representative of the bars from left to right.
# PBMC were isolated from healthy donors and incubated with bead-bound anti-IgM, CPI-006 (10 μg/mL), or human IgG1 isotype control (10 μg/mL) overnight. Flow cytometry analysis was performed with gating on B cells (CD19+CD3−) and mean fluorescence intensity (MFI) was reported for staining with antibodies to the cell surface markers CD69, CD83, and CD25, as shown in FIGS. 2A-2C. PBMC were isolated from healthy donors and incubated with CPI-006, CPI-016, human IgG1 isotype control, and anti-human CD73 antibody, clone AD2 (available from Bio-Rad Antibodies) over a range of concentrations from about 0.1 μg/mL to more than 10 μg/mL. Flow cytometry analysis was performed with gating on B cells (CD19+CD3−) and mean fluorescence intensity (MFI) is reported for antibody staining of CD69, as shown in FIG. 2F. PBMC were isolated from healthy donors and incubated overnight with bead-bound anti-IgM or CPI-006 (1 μg/mL)+/−BTK inhibitor, ibrutinib (100 nM). Flow cytometry analysis was performed with gating on B cells (CD19+CD3−) and mean fluorescence intensity (MFI) is reported for antibody staining of CD69 and CD83, as shown in FIG. 2G. PBMC were isolated from healthy donors and incubated overnight with APCP (1 μM) or CPI-006 (1 μg/mL)+/−NECA (5′-N-ethylcarboxamidoadenosine). Flow cytometry analysis was performed with gating on B cells (CD19+CD3−) and mean fluorescence intensity (MFI) is reported for antibody staining of CD69, as shown in FIGS. 2H-2I. PBMC were isolated from healthy donors and incubated with the indicated treatments for 15 minutes. Flow cytometry analysis was performed with gating on the indicated cell populations and staining of phospho ERK was evaluated, as shown in FIG. 2J.
molecule,measurement,setting,value
B1,"cytokines including TNF-α, TNF-β, MIP-1α, MIP-1β, IL-6, IL-10, IL-8, IP-10, MCP-1, MCP-2, IL-1Ra, GRO-α, MIP-3α, TNF-RII, IL-7, MMP-9",inflammatory cytokines; FIG. 8A,rapid induction
same,levels of CRP and SAA,inflammatory cytokines; FIG. 8B,subsequent increase
same,% Decrease of Peripheral B cells at C1D1 (0.5 h),"[1]; 3 mg/kg, patients 4-6 (Pancreatic, Pancreatic, Prostate)",71.2% and 62.3% and 68.1%
same,CD73POS B cells levels over time,"[1]; 1 to 12 mg/kg, repeated infusions, FIG. 7C","decrease with each infusion of CPI-006, and then partially return to a new steady state level"
same,"CD4/CD8 ratios, including CD73NEG subsets","[1]; 0.5 hours after administration, FIGS. 7A-7B",increase
same,"number of circulating cells, all evaluated lymphocyte subsets (B, T, CD4+ T, CD8+ T, NK)","[1]; 0.5 hr post-treatment versus pre-treatment, FIG. 12",decreased
same,number of circulating CD73+ B cells,"[1]; 0.5 hr post-treatment, FIG. 13",substantially decreased
same,number of circulating CD73− B cells,"[1]; 0.5 hr post-treatment, FIG. 13",either unchanged or modestly decreased
same,number of circulating B cells,"[1]; 24 hr post-treatment, FIG. 12",partial return
same,"number of circulating cells, other cell types (T, NK)","[1]; 24 hr post-treatment, FIG. 12",returned to near baseline levels
same,HLA-DR expression,"[1]; cancer patients receiving 6 mg/kg monotherapy, FIG. 7D","increase in HLA-DR expression, followed by a gradual decrease"
same,B lymphocyte trafficking,"[1]; clinical data, FIGS. 4A-4B",transient redistribution of B cells
same,CD73NEG B cells,[1]; following treatment,No significant changes
same,"B cell activation (CD69, CD83) +/− NECA, versus APCP","B cells (CD19+CD3−); CPI-006 1 μg/mL, APCP 1 μM, overnight, FIGS. 2H-2I",independent of adenosine
same,"B cell activation (CD69, CD83) +/− BTK inhibitor ibrutinib","B cells (CD19+CD3−); CPI-006 1 μg/mL, ibrutinib 100 nM, overnight, FIG. 2G",via BTK
same,expression of B cell activation marker CD69,"B cells (CD19+CD3−); PBMC overnight, CPI-006 10 μg/mL, gated on B cells, FIG. 2A",induces expression
same,expression of B cell activation marker CD83,"B cells (CD19+CD3−); PBMC overnight, CPI-006 10 μg/mL, gated on B cells, FIG. 2B",induces expression
same,expression of B cell activation marker CD25,"B cells (CD19+CD3−); PBMC overnight, CPI-006 10 μg/mL, gated on B cells, FIG. 2C",induces expression
same,antigen-presenting cell marker CD86,"B cells (CD19+CD3−); PBMC overnight, gated on B cells, FIG. 2D",activates
same,antigen-presenting cell marker MHC-II,"B cells (CD19+CD3−); PBMC overnight, gated on B cells, FIG. 2E",activates
same,phospho-ERK signaling in B cells versus T cells,"B cells (CD19+CD3−); PBMC, 15 minutes, FIG. 2J",to a greater extent than in CD4+ T cells or CD8+ T cells
same,induction of B cell activation (CD69 MFI) compared with other antibodies,"B cells (CD19+CD3−); about 0.1 μg/mL to more than 10 μg/mL, versus CPI-016, isotype control, AD2, FIG. 2F",unique to CPI-006
same,direct B cell activation,B cells (CD19+CD3−); human B lymphocytes,directly activates human B lymphocytes
